Substrate in the series: Nc1ncnc2c1ncn2[C@@H]1O[C@H](COP(=O)(O)OP(=O)(O)OP(=O)(O)O)[C@@H](O)[C@H]1O
The experiment in a line: purified protein. The settings on record: Mg2+ BS1 (ATP site); adenosine competes with ATP. In kind it is biochemical, Mus musculus.

B1: Adenosine Kinase (mADK) (Mus musculus) (protein)
chain: MAAADEPKPKKLKVEAPQALSENVLFGMGNPLLDISAVVDKDFLDKYSLKPNDQILAEDKHKELFDELVKKFKVEYHAGGSTQNSMKVAQWLIQEPHKAATFFGCIGIDKFGEILKRKAADAHVDAHYYEQNEQPTGTCAACITGGNRSLVANLAAANCYKKEKHLDLERNWVLVEKARVYYIAGFFLTVSPESVLKVARYAAENNRVFTLNLSAPFISQFFKEALMDVMPYVDILFGNETEAATFAREQGFETKDIKEIAKKAQALPKVNSKRQRTVIFTQGRDDTIVAAENDVTAFPVLDQNQEEIIDTNGAGDAFVGGFLSQLVSDKPLTECIRAGHYAASVIIRRTGCTFPEKPDFH
As for B1, the Km came out at 2.1 µM.

Usually Km stands for the concentration of substrate that gives half-maximal velocity.

For the origin of these results see paper PMC6086891, “Adenosine Kinase couples sensing of cellular potassium depletion to purine metabolism” (Scientific Reports, 2018).
